B1: astrovirus VP70 expressed in insect cells (natural protein)
chain: MASKSDKQVTVEVNNNGRSRSKSRARSQSRGRGRSVKITVNSHNKGRRQNGRNKYQSNQRVRKIVNKQLRKQGVTGPKPAICQTATATLGTIGSNTTGATEIEACILLNPVLVKDATGSTQFGPVQALGAQYSMWKLKYLNVRLTSMVGASAVNGTVVRISLNPTSTPSSTSWSGLGARKHLDVTVGKNAVFKLKPSDLGGPRDGWWLTNTNDNASDTLGPSIEIHTLGQTMSSYQNTQFTGGLFLVELSSAWCFTGYAANPNLVNLVKSTDKSVNVTFEGSAGTPLIMNVPEHSHFARTAVEHSSLSTSLSRAGGESSSDTVWQVLNTAVSAAELVTPPPFNWLVKGGWWFVKLIAGRARTGARRFYVYLSYQDALSNKPALCTGGVPASARQSNPVRTTLQFTQMNQPSLGHGATPMTFGRSIPEPGEQFRVLLTVGPPMAPNTANSQNWVNKTIVPPENQYTVKIGIDLEHYTTMQGFTPVESVSWYTADFQPSDEPSPIPGLYARVNNTKKADVYGVQQFKSSHTNNRHQITSVFLVRVTTSFQVINYTSYFIRGAESGSNVSNLKIRDQTYHTPLQFTQGKWYLLTSTVMHDGPTSSGWVWMNQELTNNIAYRVDPGMMYLITPPPAASQLYFELHTVLPQARSEEPETYVD
notes: construct, tags and purification are not described; source: insect cells
B2: astrovirus VP70 expressed in E. coli (natural protein)
chain: MASKSDKQVTVEVNNNGRSRSKSRARSQSRGRGRSVKITVNSHNKGRRQNGRNKYQSNQRVRKIVNKQLRKQGVTGPKPAICQTATATLGTIGSNTTGATEIEACILLNPVLVKDATGSTQFGPVQALGAQYSMWKLKYLNVRLTSMVGASAVNGTVVRISLNPTSTPSSTSWSGLGARKHLDVTVGKNAVFKLKPSDLGGPRDGWWLTNTNDNASDTLGPSIEIHTLGQTMSSYQNTQFTGGLFLVELSSAWCFTGYAANPNLVNLVKSTDKSVNVTFEGSAGTPLIMNVPEHSHFARTAVEHSSLSTSLSRAGGESSSDTVWQVLNTAVSAAELVTPPPFNWLVKGGWWFVKLIAGRARTGARRFYVYLSYQDALSNKPALCTGGVPASARQSNPVRTTLQFTQMNQPSLGHGATPMTFGRSIPEPGEQFRVLLTVGPPMAPNTANSQNWVNKTIVPPENQYTVKIGIDLEHYTTMQGFTPVESVSWYTADFQPSDEPSPIPGLYARVNNTKKADVYGVQQFKSSHTNNRHQITSVFLVRVTTSFQVINYTSYFIRGAESGSNVSNLKIRDQTYHTPLQFTQGKWYLLTSTVMHDGPTSSGWVWMNQELTNNIAYRVDPGMMYLITPPPAASQLYFELHTVLPQARSEEPETYVD
notes: construct, tags and purification are not described; source: E. coli

Biological target: the molecule itself
Experiment: not stated; data not shown; oligomeric state of recombinant VP70 expressed in insect cells or E. coli

| Protein | stoichiometry N |
| --- | --- |
| B1 | 2 |
| B2 | 2 |

Source: publication PMC5044835, “Crystal Structure of the Human Astrovirus Capsid Protein” (Journal of Virology, 2016)
